# Laboratory results as given in patent publication US20220289837A1, “Cystic Fibrosis Transmembrane Conductance Regulator Stabilizing Agents” (VIB VZW, priority 2019, published 2022).
# Positions count from the first letter of the chain named.
# B1: T8: nanobody, SEQ ID NO:7, binds epitope 2 including F508, stabilizes WT CFTR but not F508del (protein)
# VHH: QVQLQESGGGLVQPGGSLRLSCAASGSTSSINAMGWYRQAPGKQREPVAISSSGGDTRYAEPVKGRFTISRDNAQNKVYLQMNSLKPEDTAVYYCWLNWGRTSVNSWGQGTQVTVSS
# modifications: T8 Nanobody amino acid sequence
# B2: D12: NBD1-specific CFTR-stabilizing nanobody, SEQ ID NO:2, binds epitope 1 (protein)
# VHH: QVQLQESGGGLVQAGSSLRLACAATGSIRSINNMGWYRQAPGKQRGMVAIITRVGNTDYADSVKGRFTISRDNAKNTVYLQMNSLKPEDTATYYCHAEITEQSRPFYLTDDYWGQGTQVTVSS
# modifications: D12 Nanobody amino acid sequence
# B3: G5: NBD1-binding nanobody, SEQ ID NO:5, same binding site as T2a, T27 and D12 (protein)
# VHH: B2 VHH with S16G, S30N, N33T, G46D, I50F, V54A, K75R, Q81R, T100A, Q102R
# modifications: G5 Nanobody amino acid sequence
# B4: T2a: NBD1-specific CFTR-stabilizing nanobody, SEQ ID NO:3, binds epitope 1 (protein)
# VHH: QVQLQESGGGLVQAGGSLRLSCAASGSIFRIDAMGWYRQAPGKQRELVAHSTSGGSTDYADSVKGRFTISRDNAKNTVYLQMNSLKPEDTAVYYCNADVRTRWYASNNYWGQGTQVTVSS
# modifications: T2a Nanobody amino acid sequence
# B5: G3a: non-stabilizing nanobody, SEQ ID NO:50, recognizes the structurally diverse region of NBD1 (protein)
# VHH: QVQLQESGGGLVQAGGSLRLSCTASGRAFSWYVMGWFRQAPGKEREFVATVSGNGSRRDYADSVKGRFTISRDNAKNTVYLQMNSLKPEDTAVYYCAASSTYYYTDPEKYDYWGQGTQVTVSS
# modifications: G3a Nanobody
# Assays:
# Assay type in all cases: cell-based
# 3HA-F508del-CFTR [1] = molecular target: T1, 3HA-F508del-CFTR (Homo sapiens, UniProt P13569, DEL508-508); test: CFTR protein maturation by Western Blot in 3HA-F508del-CFTR HEK-293T cells; conditions: for band C (fully glycosylated mature CFTR): FIG. 15, Nb transfected and/or VX-809; for mature CFTR protein band (band C): FIG. 17, Nb transfected and/or VX-661
# T1 construct: expressed in transfected cells
# Method: (§1) HEK293T cells expressing F508del-CFTR with an engineered extracellular 3HA tag were transiently transfected with the stabilizing Nbs, as well as control Nbs. The effect on F508del mutant CFTR expression and maturation was measured by flow cytometry, Western Blot and fluorescence microscopy. Next, the effect of the transfection of each Nb was measured in the absence or presence of the correctors VX-809 (lumacaftor) or VX-661 (Tezacaftor).
# (§2) Stable cell lines were generated by lentiviral transduction as described in (Ensinck, et al. 2020). CFTR variants were cloned to contain a triple hemagglutinin (3HA) tag in the fourth extracellular loop (EC-loop) of CFTR (Sharma, et al. 2004) for maturation and trafficking studies. For HS-YFP quenching studies, double stable cell lines were generated, co-expressing stable HS-YFP (Galietta, et al. 2001).
# Cell extracts were separated by SDS-PAGE on 7.5% polyacrylamide gel and transferred to nitrocellulose membrane (Bio-Rad) for immunodetection. After blocking for 1 h with 5% bovine serum albumin (BSA) in Tris-buffered saline added 0.05% Tween-20 (TBST), CFTR was detected using monoclonal antibody mAb 596, IgG2b (CFTR Antibody Distribution Program, dilution 1:46) for 1 h in blocking buffer. Blot was washed 3 times 5 min and incubated with anti-mouse-HRP antibody (Millipore, catalogue number: AP308P, 0.2 μg/ml) for 1 h in TBST. Membrane was washed 3 times for 5 min. CFTR was visualized by chemiluminescence using Luminata Forte Western HRP Substrate (Millipore) and detected with ImageQuant 400 (GE Healthcare).
# 3HA-F508del-CFTR [2] = molecular target: T1, 3HA-F508del-CFTR; test: Cell-surface expression of F508del-CFTR in HEK-293T cells by flow cytometry; conditions: extracellular 3HA-tag, Nb transfected and/or VX-809
# Method: as §1, §2
# 3HA-F508del-CFTR [3] = molecular target: T1, 3HA-F508del-CFTR; test: Immunostaining of cell-surface expression in F508del-CFTR HEK-293T cells
# Method: as §2
# For PM staining, cells were blocked with 1% BSA-PBS and incubated with HA.11 antibody (#901515, Biolegend 1:1000) at 4° C. on living cells. Next, cells were fixed (4% PFA) followed by Alexa-488 secondary antibody (#A-11001, Thermo Fischer Scientific, 1:500). Nuclei were stained with DAPI (4′,6-diamidino-2-fenylindole, #D1306, Thermo Fischer Scientific, 1:2000) and sections analyzed by confocal microscopy.
# T1 sequence (P13569 with tags, fused parts or gaps DEL508-508): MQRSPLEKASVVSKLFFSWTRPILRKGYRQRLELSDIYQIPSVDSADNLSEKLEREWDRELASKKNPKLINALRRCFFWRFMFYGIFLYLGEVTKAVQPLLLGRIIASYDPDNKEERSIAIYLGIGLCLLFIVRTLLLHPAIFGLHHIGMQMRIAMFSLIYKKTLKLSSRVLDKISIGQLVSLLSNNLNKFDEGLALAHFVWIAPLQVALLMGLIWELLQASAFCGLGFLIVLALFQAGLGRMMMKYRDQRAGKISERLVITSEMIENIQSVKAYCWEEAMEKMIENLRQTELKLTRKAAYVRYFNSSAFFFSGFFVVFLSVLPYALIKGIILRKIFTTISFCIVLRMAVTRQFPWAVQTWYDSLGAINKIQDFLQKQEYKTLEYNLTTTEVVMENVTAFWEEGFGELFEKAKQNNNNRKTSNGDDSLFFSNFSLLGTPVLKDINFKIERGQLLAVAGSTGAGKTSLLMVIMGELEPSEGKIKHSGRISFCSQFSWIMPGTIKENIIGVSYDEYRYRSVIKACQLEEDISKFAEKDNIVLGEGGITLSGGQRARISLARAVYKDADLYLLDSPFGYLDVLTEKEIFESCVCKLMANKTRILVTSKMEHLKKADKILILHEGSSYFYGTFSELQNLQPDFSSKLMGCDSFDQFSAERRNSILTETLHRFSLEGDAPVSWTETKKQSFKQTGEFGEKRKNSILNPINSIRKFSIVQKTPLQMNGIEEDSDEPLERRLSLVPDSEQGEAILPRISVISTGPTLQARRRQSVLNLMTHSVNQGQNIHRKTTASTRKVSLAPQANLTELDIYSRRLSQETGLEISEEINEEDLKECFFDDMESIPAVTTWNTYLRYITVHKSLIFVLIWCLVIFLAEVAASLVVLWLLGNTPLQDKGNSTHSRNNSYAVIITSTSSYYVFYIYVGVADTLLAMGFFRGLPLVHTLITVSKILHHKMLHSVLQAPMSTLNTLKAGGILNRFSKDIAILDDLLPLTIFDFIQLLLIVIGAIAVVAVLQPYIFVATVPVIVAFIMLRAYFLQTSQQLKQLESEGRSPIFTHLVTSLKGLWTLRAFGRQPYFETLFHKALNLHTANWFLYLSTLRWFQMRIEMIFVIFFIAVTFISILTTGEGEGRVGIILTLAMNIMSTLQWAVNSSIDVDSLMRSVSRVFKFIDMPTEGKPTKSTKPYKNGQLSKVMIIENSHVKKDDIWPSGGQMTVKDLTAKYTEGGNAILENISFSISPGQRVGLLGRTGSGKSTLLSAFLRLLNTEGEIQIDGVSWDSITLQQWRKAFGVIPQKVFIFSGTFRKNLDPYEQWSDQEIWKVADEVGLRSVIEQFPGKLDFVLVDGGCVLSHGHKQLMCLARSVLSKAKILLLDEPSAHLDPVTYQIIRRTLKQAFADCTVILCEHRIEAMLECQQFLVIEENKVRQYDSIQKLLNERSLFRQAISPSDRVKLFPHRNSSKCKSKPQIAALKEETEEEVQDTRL
Molecule,band C (fully glycosylated mature CFTR) (3HA-F508del-CFTR [1]),cell-surface expression of F508del-CFTR (3HA-F508del-CFTR [2]),mature CFTR protein band (band C) (3HA-F508del-CFTR [1]),cell-surface immunostaining (3HA-F508del-CFTR [3])
B1,no effect,No effect,,
B2,,moderate increase in surface expression,,
B3,,moderate increase in surface expression,,
B4,detectable,moderate increase in surface expression,only a minor effect,moderate staining
B5,no effect,No effect,detectable,
